Data published in US20140302035A1 (MERRIMACK PHARMACEUTICALS, published 2014).

Molecular target: T1, Human EpCAM-Fc-his tagged (human)
T1 construct: also called Recombinant polyhistidine-tagged EpCAM-Fc; recombinant EpCAM
Assay: BLI (ForteBio Octet), antibody loaded on Protein A tips, recombinant polyhistidine-tagged EpCAM-Fc in solution

T1 sequence (chain, as listed by the source): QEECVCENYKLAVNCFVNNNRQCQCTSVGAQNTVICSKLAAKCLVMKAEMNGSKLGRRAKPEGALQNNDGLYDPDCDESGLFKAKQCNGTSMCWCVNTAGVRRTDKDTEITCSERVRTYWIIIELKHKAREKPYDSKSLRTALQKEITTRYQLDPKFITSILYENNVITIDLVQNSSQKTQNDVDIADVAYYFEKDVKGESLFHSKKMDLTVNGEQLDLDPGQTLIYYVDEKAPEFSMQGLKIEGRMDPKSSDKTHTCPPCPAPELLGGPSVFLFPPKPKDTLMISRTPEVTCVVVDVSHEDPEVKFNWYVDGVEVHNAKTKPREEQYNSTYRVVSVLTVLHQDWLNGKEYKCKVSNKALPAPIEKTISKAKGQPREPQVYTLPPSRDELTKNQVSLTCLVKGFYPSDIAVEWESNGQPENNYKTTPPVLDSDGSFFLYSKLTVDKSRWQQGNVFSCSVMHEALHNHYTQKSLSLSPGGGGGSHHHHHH

B1: Ab#2 (bispecific antibody, human IgG1, kappa)
heavy: QLQLQESGPGLVKPSETLSLTCTVSGGSISSSVYYWSWIRQPPGKGLEWIGVIYPSGNTYYSPSLKSRVTISVDTSKNQFSLKLSSVTAADTAVYYCARTIYDLFDIWGQGTMVTVSSASTKGPSVFPLAPSSKSTSGGTAALGCLVKDYFPEPVTVSWNSGALTSGVHTFPAVLQSSGLYSLSSVVTVPSSSLGTQTYICNVNHKPSNTKVDKKVEPKSCDKTHTCPSCPAPEFLGGPSVFLFPPKPKDTLMISRTPEVTCVVVDVSQEDPEVQFNWYVDGVEVHNAKTKPREEQFNSKYRVVSVLTVLHQDWLNGKEYKCKVSNKGLPSSIEKTISKAKGQPREPQVYTLPPSREEMTKNQVSLSCAVKGFYPSDIAVEWESNGQPENNYKTTPPVLDSDGSFFLVSKLTVDKSRWQQGNVFSCSVMHEALHNHYTQKSLSLSKSCDKTGGGGSGGGGSGGGGSGGGGSGGGGSGGGGSGGGGSGGGGSCPSCPAPEFLGGPSVFLFPPKPKDTLMISRTPEVTCVVVDVSQEDPEVQFNWYVDGVEVHNAKTKPREEQFNSDYRVVSVLTVLHQDWLNGKEYKCKVSNKGLPSSIEKTISKAKGQPREPQVYTLPPSREEMTKNQVSLWCLVKGFYPSDIAVEWESNGQPENNYKTTPPVLDSDGSFFLYSKLTVDKSRWQQGNVFSCSVMHEALHNHYTQKSLSLSGECGGGGSGGGGSQVQLVQSGSELKKPGESVKVSCKASGYTFTNYGMHWVRQAPGQGLKWMGWINTYTGESTYADDFKGRFAFSLDTSASTAYLQISSLKAEDTAVYFCARFAIKGDYWGQGTLVTVSSASTGGGGSGGGGSGGGGSGGGGSDIVMTQSPLSLPVTPGEPASISCRSTKSLLHSDGITYLYWYLQKPGQSPQLLIYQLSNLASGVPDRFSSSGSGTDFTLKISRVEAEDEGVYYCAQNLEIPYTFGQGTKVEIK
light: DIQMTQSPSSVSASVGDRVTITCRASQGISSWLAWYQQKPGKAPKLLIYAASSLQSGVPSRFSGSGSGTDFTLTISSLQPEDFATYYCLQANSFPPTFGGGTKVEIKRTVAAPSVFIFPPSDEQLKSGTASVVCLLNNFYPREAKVQWKVDNALQSGNSQESVTEQDSKDSTYSLSSTLTLSKADYEKHKVYACEVTHQGLSSPVTKSFNRGEC
notes: Anti-c-Met Fab / tandem Fc / anti-EpCAM scFv TFcBA; also called Antibody #2
- binding result: no binding
